Reference: patent publication US20170246263A1 (SHIRE HUMAN GENETIC THERAPIES, published 2017)

T1: SORT1 on SORT1 overexpressing cells (Homo sapiens (Human), UniProt Q99523 78-831)
T1 sequence: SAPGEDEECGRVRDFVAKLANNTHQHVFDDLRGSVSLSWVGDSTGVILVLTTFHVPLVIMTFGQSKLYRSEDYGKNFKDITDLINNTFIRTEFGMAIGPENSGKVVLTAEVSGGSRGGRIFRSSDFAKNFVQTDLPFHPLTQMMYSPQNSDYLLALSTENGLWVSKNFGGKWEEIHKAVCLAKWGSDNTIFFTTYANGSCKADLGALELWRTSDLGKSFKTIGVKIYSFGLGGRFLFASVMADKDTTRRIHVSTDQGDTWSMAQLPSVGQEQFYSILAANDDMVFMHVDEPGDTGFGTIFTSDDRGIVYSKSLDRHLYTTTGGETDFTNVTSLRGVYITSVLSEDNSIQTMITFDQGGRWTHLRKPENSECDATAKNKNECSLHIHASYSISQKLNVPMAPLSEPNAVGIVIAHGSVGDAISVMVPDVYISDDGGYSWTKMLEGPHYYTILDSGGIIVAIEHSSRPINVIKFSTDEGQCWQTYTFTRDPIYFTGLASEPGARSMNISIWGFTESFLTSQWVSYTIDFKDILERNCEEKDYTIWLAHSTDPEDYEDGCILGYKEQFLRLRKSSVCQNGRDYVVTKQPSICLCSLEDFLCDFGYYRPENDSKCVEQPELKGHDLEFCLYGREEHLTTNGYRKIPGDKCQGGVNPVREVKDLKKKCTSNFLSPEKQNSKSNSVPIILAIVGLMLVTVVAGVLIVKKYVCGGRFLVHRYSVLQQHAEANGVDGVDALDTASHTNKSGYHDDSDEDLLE

T2: recombinant 6xHistidine tagged human SORT1 (human, UniProt Q99523 78-755)
T2 construct: Captured on the chip by an anti-His mAb; also called SORT1-6xHis; Sortilin-6xHis
T2 sequence: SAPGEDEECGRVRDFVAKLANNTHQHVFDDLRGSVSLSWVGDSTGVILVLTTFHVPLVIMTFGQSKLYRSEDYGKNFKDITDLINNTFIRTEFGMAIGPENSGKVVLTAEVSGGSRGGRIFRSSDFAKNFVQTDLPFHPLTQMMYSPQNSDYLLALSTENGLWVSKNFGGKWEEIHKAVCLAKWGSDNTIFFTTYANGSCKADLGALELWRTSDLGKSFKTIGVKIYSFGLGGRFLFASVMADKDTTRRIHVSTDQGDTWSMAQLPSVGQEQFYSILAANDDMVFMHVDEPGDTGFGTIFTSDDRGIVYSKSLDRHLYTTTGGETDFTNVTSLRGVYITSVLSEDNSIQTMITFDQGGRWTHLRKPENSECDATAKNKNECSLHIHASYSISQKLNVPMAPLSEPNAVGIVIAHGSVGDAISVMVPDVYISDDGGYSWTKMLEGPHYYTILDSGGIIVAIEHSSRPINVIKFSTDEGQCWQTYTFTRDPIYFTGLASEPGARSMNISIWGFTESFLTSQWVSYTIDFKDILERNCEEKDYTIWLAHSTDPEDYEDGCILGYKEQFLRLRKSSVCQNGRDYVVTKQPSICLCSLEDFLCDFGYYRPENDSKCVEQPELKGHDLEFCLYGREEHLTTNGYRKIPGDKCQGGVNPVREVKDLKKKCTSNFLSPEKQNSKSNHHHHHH

B1: Naglu-SPP fusion protein (enzyme)
chain: DEAREAAAVRALVARLLGPGPAADFSVSVERALAAKPGLDTYSLGGGGAARVRVRGSTGVAAAAGLHRYLRDFCGCHVAWSGSQLRLPRPLPAVPGELTEATPNRYRYYQNVCTQSYSFVWWDWARWEREIDWMALNGINLALAWSGQEAIWQRVYLALGLTQAEINEFFTGPAFLAWGRMGNLHTWDGPLPPSWHIKQLYLQHRVLDQMRSFGMTPVLPAFAGHVPEAVTRVFPQVNVTKMGSWGHFNCSYSCSFLLAPEDPIFPIIGSLFLRELIKEFGTDHIYGADTFNEMQPPSSEPSYLAAATTAVYEAMTAVDTEAVWLLQGWLFQHQPQFWGPAQIRAVLGAVPRGRLLVLDLFAESQPVYTRTASFQGQPFIWCMLHNFGGNHGLFGALEAVNGGPEAARLFPNSTMVGTGMAPEGISQNEVVYSLMAELGWRKDPVPDLAAWVTSFAARRYGVSHPDAGAAWRLLLRSVYNCSGEACRGHNRSPLVRRPSLQMNTSIWYNRSDVFEAWRLLLTSAPSLATSPAFRYDLLDLTRQAVQELVSLYYEEARSAYLSKELASLLRAGGVLAYELLPALDEVLASDSRFLLGSWLEQARAAAVSEAEADFYEQNSRYQLTLWGPEGNILDYANKQLAGLVANYYTPRWRLFLEALVDSVAQGIPFQQHQFDKNVFQLEQAFVLSKQRYPSQPRGDTVDLAKKIFLKYYPRWVAGSWGAPGGGGGAAAAAGGGGGGAPGGGGGAAAAAGGGGGGAPGGGGGAAAAAGGGGGGAPQDRLDAPPPPAAPLPRWSGPIGVSWGLRAAAAGGAFPRGGRWRR
B2: Naglu-tPRGN fusion protein (enzyme)
chain: DEAREAAAVRALVARLLGPGPAADFSVSVERALAAKPGLDTYSLGGGGAARVRVRGSTGVAAAAGLHRYLRDFCGCHVAWSGSQLRLPRPLPAVPGELTEATPNRYRYYQNVCTQSYSFVWWDWARWEREIDWMALNGINLALAWSGQEAIWQRVYLALGLTQAEINEFFTGPAFLAWGRMGNLHTWDGPLPPSWHIKQLYLQHRVLDQMRSFGMTPVLPAFAGHVPEAVTRVFPQVNVTKMGSWGHFNCSYSCSFLLAPEDPIFPIIGSLFLRELIKEFGTDHIYGADTFNEMQPPSSEPSYLAAATTAVYEAMTAVDTEAVWLLQGWLFQHQPQFWGPAQIRAVLGAVPRGRLLVLDLFAESQPVYTRTASFQGQPFIWCMLHNFGGNHGLFGALEAVNGGPEAARLFPNSTMVGTGMAPEGISQNEVVYSLMAELGWRKDPVPDLAAWVTSFAARRYGVSHPDAGAAWRLLLRSVYNCSGEACRGHNRSPLVRRPSLQMNTSIWYNRSDVFEAWRLLLTSAPSLATSPAFRYDLLDLTRQAVQELVSLYYEEARSAYLSKELASLLRAGGVLAYELLPALDEVLASDSRFLLGSWLEQARAAAVSEAEADFYEQNSRYQLTLWGPEGNILDYANKQLAGLVANYYTPRWRLFLEALVDSVAQGIPFQQHQFDKNVFQLEQAFVLSKQRYPSQPRGDTVDLAKKIFLKYYPRWVAGSWGAPGGGGGAAAAAGGGGGGAPGGGGGAAAAAGGGGGGAPGGGGGAAAAAGGGGGGAPTKCLRREAPRWDAPLRDPALRQLL
notes: also called Naglu-tPGRN

Assays:
[1] = molecular target: T1, SORT1 on SORT1 overexpressing cells; assay: cell-based or functional assay
[2] = molecular target: T2, recombinant 6xHistidine tagged human …; assay: SPR; SORT1-6xHis captured by anti-His mAb, Naglu-SPP as analyte 0-20 nM
Method: (§1) Briefly, anti-His mAb (capturing molecule) was diluted in immobilization buffer and bound on the dextran surface of a SPR sensor chip housed in a microfluidic system. […] As the solution moved over the SPR sensor chip, the analyte bound to the capture complex and an increase in SPR signal (expressed in response units, RU) was observed. Finally, a solution without analyte was injected into the microfluidic device to detach bound […] from the capture complex, resulting in a decrease in SPR signal. The detailed experimental conditions are described in Table 6 below.

[3] = molecular target: T2, recombinant 6xHistidine tagged human …; assay: SPR; SORT1-6xHis captured on anti-His mAb, Naglu-SPP 0.625-20 nM as analyte; value from the fit table under the sensorgrams
Method: as §1

[4] = molecular target: T1, SORT1 on SORT1 overexpressing cells; assay: binding/uptake assay on SORT1 overexpressing cells; intracellular Naglu activity against fusion protein concentration; cellular uptake assay on SORT1 overexpressing cells, read as intracellular Naglu activity
Method: A cell line was established overexpressing SORT1, using standard technologies known in the art. […] After a specified period of time, the supernatant was removed and the cells were washed repeatedly. Then, cells were lysed and each sample was assayed for Naglu enzyme activity.

Row | Binder | Kd (cellular uptake: Naglu activity in lysates of SORT1 overexpressing cells) [A] [1] [nM] | Kd [2] [nM] | koff [2] [s⁻¹] | kon [2] [M⁻¹ s⁻¹] | Kd [3] [nM] | koff [3] [s⁻¹] | kon [3] [M⁻¹ s⁻¹] | Kd [4] [nM]
1 | B1 | 155 | ~0.66 | ~0.00071 | ~1.1e+06 | 0.663 | 0.000708 | 1.07e+06 | 155
2 | B2 |  |  |  |  |  |  |  | 392
